The DeepSol protein solubility set

Assay: soluble on expression in E. coli; label from the status in PepcDB or PDB records
For “MRQIFPGLDPNTYVQHPLHSSERMWPETNCYIDLWIEVLASKGLSPEAMFGFTLTQDFEGDQFTFFKVPLEDLEALYGVRATELAIFDKVEDHIATQLERGRICLIEMDSFYMPDTHGVGYQKEHGKTTVAINRLDLEKRELDYFHNAGFFHLSGEDFDGLFQHHLAETDPPFLPYTEFAKFADSNPSPAHIRKTAERLLKFHFSRRPSANPVRAFAKVFPAQVEKVADRPFGFFHKYAFNTLRQLGANFELAASHLEWLDKQGFSDARDHALKISEVAKTVQFQLARAVTRRKFDALATVLDPAADAWDGLMESLGEKLSDASEAA”, the “soluble on expression in E. coli” value was “soluble”.
In the case of “MGSDKIHHHHHHMKYLPLYPILARYPFLRIASRVFSFNIEDELRKFLDTVEAAKRIVDKAIDGRVEYDRFTDESEFFCLGCEENCYDCQKRGTLEGCDLCMGCFENCSLYYPREAVERFYTNAKLSLLTYIASRMIVSAMEDWVRMRYAVNEASYYSRLLREDVEESGKEPIVRLVAIDLGAKLKGWKMHVSTFVRVSARIKDDKWRLVNRKLRNGWVETTKAEVLRGLEELLRMKLFEKVPVSEAVSEAVRELSRKAKRESEKFAMDLGEVDLNCLPPCMREILSELQRGMNIPHTARFAITSFLLNIGMTVDEIIALFKSAPDFDDEKTRYQVEHIAGERGKGAEYTSPSCDTMRTYSNCVADCRVSHPLIYYKKCKSKS”, the “soluble on expression in E. coli” value was “not soluble”.
With “MSLATLKDVAELAGVGLSTASRAISGKGPVSADAAARVKAAIAELNFRPSSIGRAMATQQLGIIGLFVPTFFGSYYGTILKQTDLELRAVHRHVVVATGCGESTPREQALEAVRFLIGRDCDGVVVISHDLHDEDLDELHRMHPKMVFLNRAFDALPDASFCPDHRRGGELAAATLIEHGHRKLAVISGPFTASDNVERLDGFFDELARHGIARDSVPLIESDFSPEGGYAATCQLLESKAPFTGLFCANDTMAVSALARFQQLGISVPGDVSVIGYDDDYSAAYAAPALTSVHIPTAELTQNAVRWLINQCYGTKWEIFREFPVTVSMRASVAREGHHHHHH” the “soluble on expression in E. coli” value was “soluble”.
In the case of “MAHHHHHHMLQRLSHRSVLGYHGAPQVAALRCSLRFGTNIGGSYYQESDTAGTHQMNNDIRLGLVIKPQSTLVELWEQALKAWPTRRFLGSKMWVRGKLGYVWATYESINTEVEAMRTLLHSMGVEKGSRVVVISENRYEWVVVHFATMQLGAHFVALPTNVTPSEAQLVVKSTQSKVLFVETKASYAAIKGWIGRVGQLEHAICFEDQVGEGSYAVAISIAADVPEKTLARTDVRAEDTAMIVFTAGTTGPPKGVMLSHKSIVANVSSVYASLGEALTHSDMFMSLCSWCVAGALTTDLYQALCKGACVCIPPEILEGFQDLPLVNPSVIVSVAQPFQRAYANIVDDILNRRSFTKDLTRFVVGRITENRLMFKKPGRTLQAFSHALLGKFKAQFGSELRVAIIIGHQLTKDQSELMADLDVFVVNTYGFMEAGGLVATDVDVPQRLKALPGLEVRVVNEKNEIVAPGDLGEILIEAPNAMQGYFDVHIDPEEAKNSLVEYGSRTFVRSGDYGTLTGGWITVKGNKDVLITLANSKTVNPLEVEAALTKSPFIKQVFIYGNRHPYVVALVVANTKAIAAHLRKVERRDGVPLVNDREKADCIRAELRRVSQDLPPRAHVRRFAFVDEFTLANGFMTVKMGYARQKIEDHYVHYFEALYDETPKFYGFAVDDYDDLF”, the “soluble on expression in E. coli” value was “soluble”.
In the case of “MSLYKGYLIDLDGTIYKGKDRIPAGETFVHELQKRDIPYLFVTNNTTRTPESVKEMLAQNFNIDTPLSTVYTATLATIDYMNDLGLEKTVYVVGEAGLKEAIKAAGYVEDKEKPAYVVVGLDWQVDYEKFATATLAIQKGAHFIGTNPDLNIPTERGLLPGAGSLITLLEVATRVKPVYIGKPNAIIMDKAVEHLGLEREELIMVGDNYLTDIRAGIDNGIPTLLVTTGFTKAEEVAGLPIAPTHVVSSLAEWDFDENEGHHHHHH”, the “soluble on expression in E. coli” value was “soluble”.
For “MGSDKIHHHHHHMPDGNQSLTVTVLSAIAEIGAEEWDGCAGSHNPFIRHAFLLAMEHSGSATAQTGWTPRHLAVRDAEGRLLAAAPLYLKSHSFGEYVFDWSWAQAYERAGGRYYPKLQCAVPFTPVTGPRLLVRPGEDGPRLRRVLAASMVDLARRLGASSVHVTFPSGQEYEGLGEVGYLQRLGSQYHWSNQGYQSFDDFLGQLSSRKRKQIRKERDAVARSGVRITTLVGTEVKSRHWDVFHAFYESVVDRKWGRAYVNRAFFEELSASNLAEAVVLVWAEDDGEPLGAAFNMLGKDTLYGRTWGGGRHVDFLHFEACYYRALDFAIAHGLARVEAGAQGEHKVSRGYLPTPTYSAHWIADAALAEPVARYLAHERAQVAEDMADQTEEGPFRKA”, the “soluble on expression in E. coli” value was “not soluble”.
For “VEKVFVVGHKNLDMDALGATVGMAHFASQIVRKSYAVYDDMAMNTDIERAVERLKEDGQSPLITLSEAEELVNQHSLLIMVDHSKINLTLSQDFYDRFNEVIVVDHHRRDDDFPENAVLTFIESGASSACELVTELLQFQGAPERLSKIQASILMAGIMLDTKNFSTRVTSRTFDVASYLRSLGSDSGEIQMISATDF”, the “soluble on expression in E. coli” value was “not soluble”.
With “GPGSMQKSKRHGMHMDFNPLEHCNAPMDSVVGYSSDVPSMSNCHRHWLSETYAYTTIGYPHEVMKKMPYGSEWKRAPTGLCWTADEFVARYLLHTRGIFVYFGGSRHDLYWENLKFFGSSGMHRLYERINFENKVEVTTTKRRKRHTPLVGDVVVWDSDYKAYFPRGHVAVVVKVEDDVSAAGGEAALRELKKERRQPSLVYIAEQNFDNKNWEGRNFSRVLKFTWMRGDRASLEDPDGPPLMGHVRVGKLLEDASFFGDL” the “soluble on expression in E. coli” value was “not soluble”.
For “EVVVVGYGTQKKVNLTGAVSAVSAEDLASKPVMSTAQALAGLAPGLSVLQTSGRPGQGATVKIRGTGTFSKAGTDPLVLIDGLSGNIDDVDPNDIQSISFLKDAASASIYGNRAANGVILIETKKGA”, the “soluble on expression in E. coli” value was “not soluble”.
With “MSSHPPIRSYVLRQGYFSNAQRHAYESLLPRYGIPLTEEPVDLDSIFGRTAPGILEIGSGMGETTAEIARQHPEKDFIAIEVHAPGIGSLLGQIEKHRLTNLRIIPHDAKLVLQQMFTSESLDGIHIFFPDPWPKARHHKRRLIQPDFVSLLCDRLKPGGYLHIATDWEDYATHILHVLRSEERFVNTAVDYAARPAYRPLTKFEQRGMKLGHTIRDIIFTRTALEHHHHHH” the “soluble on expression in E. coli” value was “not soluble”.
In the case of “MSLFFRDVIGQEEAKYRLIQEVSEGRIPHAQLFCGPEGVGKFPLALAYARYLSCTNRSDTDACGVCPSCVKFNKLVHPDVHFVFPVVKNGRSDDYIVEWRKLVLNNPYFTINHWLNEINAENAQAVIYTKESDEIMKKLSLKSSEGGFKITLLWLPEKMQQACANKLLKLLEEPPEKTIFLLVSEAPDLILQTILSRTQRFNLRKIEEECMAEALQSKYGVQQATSISIAHLANGNFIKALETIHLNEEGHHHHHH”, the “soluble on expression in E. coli” value was “soluble”.
For “MGSSHHHHHHSSGLVPRGSHASMAAEMDWDKTVGAAEDVRRIFEHIPAILVGLEGPDHRFVAVNAAYRGFSPLLDTVGQPAREVYPELEGQQIYEMLDRVYQTGEPQSGSEWRLQTDYDGSGVEERYFDFVVTPRRRADGSIEGVQLIVDDVTSRVRARQAAEARVEELSERYRNVRDSATVMQQ”, the “soluble on expression in E. coli” value was “soluble”.
With “MTKQAEETQKPIIFAPETYQYDKFTLNEKQLTDDPIDLFTKWFNEAKEDPRETLPEAITFSSAELPSGRVSSRILLFKELDHRGFTIYSNWGTSRKAHDIATNPNAAIVFFWKDLQRQVRVEGITEHVNRETSERYFKTRPRGSKIGAWASRQSDVIKNREELDELTQKNTERFKDAEDIPCPDYWGGLRIVPLEIEFWQGRPSRLHDRFVYRRKTENDPWKVVRLAP” the “soluble on expression in E. coli” value was “soluble”.
With “TQAMEGLLHYINPAHAISLLSALNEERLKGQLCDVLLIVGDQKFRAHKNVLAASSEYFQSLFTNKENESQTVFQLDFCEPDAFDNVLNYIYSSSLFVEKSSLAAVQELGYSLGISFLTNIVSKTPQAPFPTCPNRKKVFVEDDENSSQKRSVIVCQSRNEAQGKTVSQNQPDVSHTSRPSPSIAVKANTNKPHVPKPIEPLHNLSLTEKSWPKDSSVVYAKSLEHSGSLDDPNRISLVKRNAVLPSKPLQDREAMDDKPGVSGQLPKGKALELALKRPRPPVLSVCSSSETPYLLKETNKGNGQGEDRNLLYYSKLGLVIPSSGSGSGNQSIDRSGPLVKSLLRRSLSMDSQVPVYSPSIDLKSSQGSSSVSSDAPGNVLCALSQKSSLKDCSEKTALDDRPQVLQPHRLRSFSASQSTDREGASPVTEVRIKTEPSSPLSDPSDIIRVTVGDAATTAAASSSSVTRDLSLKTEDDQKDMSRLPAKRRFQADRRLPFKKLKVNEHGSPVSEDNFEEGSSPTLLDADFPDSDLNKDEFGELEGTRPNKKFKCKHCLKIFRSTAGLHRHVNMYHNPEKPYACDICHKRFHTNFKVWTHCQTQHGIVKNPSPASSSHAVLDEKFQRKLIDIVREREIKKALIIKLRRGKPGFQGQSSSQAQQVIKRNLRSRAKGAYICTYCGKAYRFLSQFKQHIKMHPGEKPLGVNKVAKPKEHAPLASPVENKEVYQCRLCNAKLSSLLEQGSHERLCRNAAVCPYCSLRFFSPELKQEHESKCEYKKLTCLECMRTFKSSFSIWRHQVEVHNQNNMAPTENFSLPVLDHNGDVTGSSRPQSQPEPNKVNHIVTTKDDNVFSDSSEQVNFDSEDSSCLPEDLSLSKQLKIQVKEEPVEEAEEEAPEASTAPKEAGPSKEASLWPCEKCGKMFTVHKQLERHQELLCSVKPFICHVCNKAFRTNFRLWSHFQSHMSQASEESAHKESEVCPVPTNSPSPPPLPPPPPLPKIQPLEPDSPTGLSENPTPATEKLFVPQESDTLFYHAPPLSAITFKRQFMCKLCHRTFKTAFSLWSHEQTHN” the “soluble on expression in E. coli” value was “soluble”.
For “MGDELHVIVARSVNVTHKEPPVVPDEQRREMVGALKPVDEAHLGHSEDIFIPIERIEPDIIALGYDQHHDDEQLEAALSARGIDCDICRASPLETEAADRVLSTGRIIDRILDERS”, the “soluble on expression in E. coli” value was “not soluble”.
With “MGSDKIHHHHHHMKIGVFSVLFYDKNFEDMLDYVAESGLDMIEVGTGGNPGDKFCKLDELLENEDKRQAFMKSITDRGLQISGFSCHNNPISPDPIEAKEADETLRKTIRLANLLDVPVVNTFSGIAGSDDTAKKPNWPVTPWPTAYSEIYDYQWNEKLIPYWQDLAEFAKEQDVKIAIELHAGFLVHTPYTMLKLREATNEYIGANLDPSHLWWQGIDPIAAIRILGQANAIHHFHAKDTYINQENVNMYGLTDMQPYGNVATRAWTFRTVGYGHSPYVWADIISQLIINGYDYVLSIEHEDPIMSVEEGFQKACQTLKSVNIYDKPADMWWA” the “soluble on expression in E. coli” value was “not soluble”.
With “MSLDGMPAKQQHNNTGESVELHFHYPIKGKQEPKNSHLVVLIEPKIEINKVIPESYQKEFEKSLFLQLSSFLERKGYSVSQFKDASEIPQDIKEKALLVLRMDGNVAILEDIVEESDALSEEKVIDMSSGYLNLNFVEPKSEDIIHSFGIDVSKIKAVIERVELRRTNSGGFVPKTFVHRIKETDHDQAIRKIMNQAYHKVMVHITKELSKKHMEHYEKVSSEMKKRKEGHHHHHH” the “soluble on expression in E. coli” value was “soluble”.
With “PPCDSIVVAYYFCGEPIPYETLVRGRAVTLGQFKELLTKKGSYRYYFKKVSDEFDCGVVFEEVREDEAILPVFEEKIIGKVEKVD” the “soluble on expression in E. coli” value was “soluble”.
With “MSLEENDDDMVGMVDLKIDLERVVRNAVDDAKEVCTQHYGDCPDVKFIISKDANTMRFPHMSSTITYIVVELMKNAFRATVESHMERNSAGMVDCSNMPPVEVLVNIKKNAKHACICVSDEGLGMTRAQCELAMTYAYTTVKRPVIQHGADEDPEEERNGVSPLAGYGFGLPMSRVYAQAFGGDLVMSTMEGYGTRVYYYIKEGHHHHHH” the “soluble on expression in E. coli” value was “soluble”.
